Test results as given in patent US20250043259, “ENDONUCLEASES THAT SELECTIVELY CLEAVE SINGLE-STRANDED NUCLEIC ACIDS AND USES THEREOF” (INSTITUT NATIONAL DE LA RECHERCHE SCIENTIFIQUE, published 2025).

T1: SsnA (NMV_0044) (Neisseria meningitidis 8013 2C4.3, UniProt Q9K1N6 Q9K1N6:1-94)
T1 sequence: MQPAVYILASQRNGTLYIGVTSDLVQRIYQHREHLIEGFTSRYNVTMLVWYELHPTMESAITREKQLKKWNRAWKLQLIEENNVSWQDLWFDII

B1: ssDNArev (ssDNA)
DNA: CCAGGTCTGTCGGTGCGGAAACTTATCGGATAAAACGGTTTCTTTAGATTTTACGTTCTAGATTCCCGCTTTCGCGGGAATGACGGAATATTTTTGAATT
modifications: [none]
B2: NTS#1 (ssDNA)
DNA: GAGGTTTCGGGCAACTTCTAAACCGTCATTCCCGCGCAGGCGGGAATCCAGACCATTGGACAGCAGCAATATTCAAAGATTATCTGAAAGTCCGGGATTC
B3: NTS#2 (ssDNA)
DNA: GTCATTCCCACGAACCTACATTCCGTCATTCCCACGAAAGTGGGAATCTAGAATCTCTAAAGCTTCAGCTAACCTTTGAATATTGCTGTTGTTCTAAGGT
B4: NTS#3 (ssDNA)
DNA: ATCCCGTCATTCCCGCCACTTTCCGTCATTCCCGCGAAAGCGGGAATCTAGAATCTCGGACTTTCAGATAATCTTTGAATATTGCTGTTGTTCTAAGGTC
B5: NTS#4 (ssDNA)
DNA: TAAATGACCCCAACTTAAAATCCCGTCATTCCCGCGCAGGCGGGAATCTAGGTCTGTCGGTGCGGAAACTTATCGGGTAAAACGGTTTCTTGAGATTTTG
B6: NTS#5 (ssDNA)
DNA: GTCATTCCCACGAACCTACATTCCGTCATTCCCACGAAAGTGGGAATCCAGTGCGTTGAGTTTCAGTCATTTCCAATAAATTGCCTTAGTATTGAATGTC
B7: dsDNA (100 bp, NTS) (dsDNA)
DNA 1: AATTCAAAAATATTCCGTCATTCCCGCGAAAGCGGGAATCTAGAACGTAAAATCTAAAGAAACCGTTTTATCCGATAAGTTTCCGCACCGACAGACCTGG
DNA 2: B1 DNA

Key:
[1] = biological target: T1, SsnA (NMV_0044); assay: cleavage_in_vitro; details: 10 mM MgCl2, 37 C optimum; abolished by EDTA
[2] = biological target: T1, SsnA (NMV_0044); assay: EMSA; details: no Mg, 50 mM NaCl, 10 mM Tris pH 7.9, 37 C; 0.5 uM protein, 0.8 uM DNA
[3] = biological target: T1, SsnA (NMV_0044); assay: EMSA; no Mg, 37 C; also not cleaved; details: tags: N-terminal 6xHis; label: 5'-carboxyfluorescein
Description: Gel-shift (top, EMSA) and endonuclease (bottom) assays of 0.5 μM SsnA with 0.8 µM of DNA. Magnesium was omitted from the EMSA reaction mix to allow DNA binding by SsnA without nuclease activity. ssDNArev is the reverse complement of ssDNA. dsDNA is the double-stranded annealed product from ssDNA with ssDNArev. The arrow represents the recognition pattern (NTS repeat) of SsnA. Unless otherwise indicated (last well), assayed proteins were his-tagged.
Electrophoretic mobility shift assay (EMSA). Gel shift assays, or EMSA, were performed by diluting the proteins in Diluent A (NEB) to the indicated working concentrations. 5′carboxyfluorescin-tagged oligos corresponding to genomic regions of N. meningitidis MC58 were synthesized from Sigma. When needed, complementary oligonucleotides were annealed by mixing equimolar amounts in annealing buffer (10 mM Tris-HCl PH8, 50 mM NaCl, 1 mM EDTA), incubating them 5 minutes at 95° C. and letting them slowly cool down. For the gel-shift assays, proteins were mixed with the fluorescent oligonucleotides in a reaction buffer containing 50 mM NaCl, 10 mM Tris-HCl, 100 μg/ml BSA, pH7.9. The mixes were incubated at 37° C. for 30 minutes before adding native loading dye. Samples were resolved on native 10% TBE-acrylamide gels and imaged with a Typhoon FLA9500 scanner. […]

[4] = biological target: T1, SsnA (NMV_0044); assay: EMSA; binding preserved, cleavage reduced to varying extents; details: tags: N-terminal 6xHis; label: 5'-carboxyfluorescein; hairpin
Description: (§1) Electrophoretic mobility shift assay (EMSA). Gel shift assays, or EMSA, were performed by diluting the proteins in Diluent A (NEB) to the indicated working concentrations. 5′carboxyfluorescin-tagged oligos corresponding to genomic regions of N. meningitidis MC58 were synthesized from Sigma. When needed, complementary oligonucleotides were annealed by mixing equimolar amounts in annealing buffer (10 mM Tris-HCl PH8, 50 mM NaCl, 1 mM EDTA), incubating them 5 minutes at 95° C. and letting them slowly cool down. For the gel-shift assays, proteins were mixed with the fluorescent oligonucleotides in a reaction buffer containing 50 mM NaCl, 10 mM Tris-HCl, 100 μg/ml BSA, pH7.9. The mixes were incubated at 37° C. for 30 minutes before adding native loading dye. Samples were resolved on native 10% TBE-acrylamide gels and imaged with a Typhoon FLA9500 scanner. For branched DNA binding assays, a similar approach was used but the gel was stained with GelStain (Biotium) and imaged on a GelDoc (BioRad) since the oligonucleotides were not fluorescently labelled.

[5] = biological target: T1, SsnA (NMV_0044); assay: EMSA; unable to interact with RNA; details: tags: N-terminal 6xHis
Description: as §1

Molecule	binding result [4]	further results
ssDNA (100 nt, NTS)	–	activity [1]: 100 % cleaved; binding [2]: 100 % bound
B1	–	binding result [3]: no binding
B2	binds	–
B3	binds	–
B4	binds	–
B5	binds	–
B6	binds	–
B7	–	binding result [3]: no binding
AAAAAUAUUCCGUCAUUCCCGCGAAAGCGGGAAUCUA (ssRNA) [RNA37]	–	binding result [5]: no binding
